Results: article PMC4282956 (Journal of immunology (Baltimore, Md. : 1950), 2014)

Molecular target: HLA-B*57:01.L82R/LF9 (human | )
Test: SPR

Kd: 35.5 ± 8.34 µM
B1: Soluble KIR3DL1*001 (receptor)
chain: HMGGQDKPFLSAWPSAVVPRGGHVTLRCHYRHRFNNFMLYKEDRIHIPIFHGRIFQESFNMSPVTTAHAGNYTCRGSHPHSPTGWSAPSNPVVIMVTGNHRKPSLLAHPGPLVKSGERVILQCWSDIMFEHFFLHKEGISKDPSRLVGQIHDGVSKANFSIGPMMLALAGTYRCYGSVTHTPYQLSAPSDPLDIVVTGPYEKPSLSAQPGPKVQAGESVTLSCSSRSSYDMYHLSREGGAHERRLPAVRKVNRTFQADFPLGPATHGGTYRCFGSFRHSPYEWSDPSDPLLVSVTGNPS
